Target: SARS-CoV-2 WT RBD protein (SARS-CoV-2, wild-type (ancestral)) (UniProt P0DTC2)
Test: SPR

Work on P2C-1F11-I27F (antibody) yielded a fold decrease of affinity against P2C-1F11 of over 7 fold.

Source: PMC9395280
